We go through three molecules from patent US20170037129A1.

The labels stand for the following.
B1: C4sh1A6 (antibody, V domains shown)
VH: QVQLVESGGGVVQPGRSLRLSCAASGFTFSTYAMHWVRQAPGRGLEWVAGISYDGSNKYHADPVKGRFTISRDNSKNTLYLQMNNLRVEDSAVYYCAGDRSGGLDVWGQGTTVTVSS
VL: DIVMTQSPSSLSASVGDRVTITCRASQGISNSLAWYQQKSGKAPKLLLYAASGLESGVPSRFSGSGSGTDYTLTISSLQPEDFATYYCQQSYSMPLTFGGGTKVEIK
B2: C4R1B2 (antibody, V domains shown)
VH: QVQLVQSGAEVKKPGASVKVSCKASGYGFTSYAIHWLRQAPGQRLEWMGWINPGNGNTKYSQKFQGRVTITRDTSATTAYMELTSLRSEDSDTAVYYCARDLDGGSFDHWGQGTLVTVSS
VL: QSVVTQPASVSGSPGQSITISCTGTSSDVGSYNLVSWYQQHPGKAPKLMIYDVTNRPSGVSNRFSGSKSGNTASLTISGLQAEDEADYYCSSYTRSSTYVFGTGTKVTVL
B3: C4sh1B2 (antibody, V domains shown)
VH: QMQLVQSGAEVKKPGASVKVSCKASGYTFTGYYIHWVRQAPGQGLEWMGWINPNSGGTIYAQKFQGRVTMTRDTSISTAYMELSRLRSDDTAVYYCARGSTNFDSWGQGTLVTVSS
VL: QAGLTQPPSASGSPGQSVTISCTGTSSDVGGYNSVSWYQQHPGKAPKLMIYDVSNRPSGVSNRFSGSKSGNTASLTISGLQAEDEADYYCSSYINSGTLVFGGGTKLTVL

One experiment deals with endogenous human CD147 expressed on human cancer cells (human) (UniProt P35613). Description: flow cytometry on K562 cells. On the technique in general: In flow cytometry, cells or beads pass a laser one at a time.
Usually EC50 stands for the concentration that produces a half-maximal response. In turn, B1 had an EC50 of 0.6 nM.
For the molecule B2, the concentration for a half-maximal effect (EC50) is 168 nM.
As for B3, the EC50 amounted to 1.55 nM.

The next experiment has the same target. As to the kind of experiment: flow cytometry on PC-3 cells.
Regarding B1, the EC50 is > 100 nM.
On the same count and under the same terms, then B2, with > 100 nM.
In turn, B3 registered an EC50 of 4.5 nM.

For another experiment the target is unchanged. As to the kind of experiment: flow cytometry on A549 cells.
In turn, B1 gave an EC50 of 35.9 nM.
In the case of B2, the EC50 stood at 83.8 nM.
For B3, the 50% effective concentration (EC50) worked out at 3.73 nM.
